Twelve molecules from patent US20210317213A1 (AMBRX, published 2021) can be followed below.

Test [1] deals with T1, human CD3 (human, UniProt P07766 23-207).
T1 construct: whole, on cells; also called CD3 on human T-cells
Kind of test: cell binding, human T-cells. Details: Bmax: unit not given here.

Test [2] addresses T2, cyno CD3 (cyno (cynomolgus monkey), UniProt Q95LI5 22-198).
T2 construct: whole, on cells; also called CD3 on Cynomolgus T-cells
Put plainly: cell binding, cynomolgus T-cells.

The target in test [3] is T2, cyno CD3. Kind of test: cell binding, activated cyno PBMC.
Test [4] has as its target Folate receptor-alpha (FOLR1) (human) (UniProt P15328). Kind of test: summary table; FRα affinity over CD3 affinity.
Test [5] addresses T1, human CD3. Kind of test: cell binding, activated human PBMC.
Test [6] concerns the target Folate receptor-alpha (FOLR1) (human) (UniProt P15328). Put plainly: summary table; cell binding through the folate moiety.
Test [7] deals with T1, human CD3. Put plainly: cell binding, human CD3, 50 nM SFA present.
In test [8] the target is T1, human CD3. Kind of test: summary table; cell binding EC50, human PBMC.
The target of test [9] is Folate receptor-alpha (FOLR1) (human) (UniProt P15328). Kind of test: cell binding, FOLRα-expressing KB cells; through the folate moiety.
In test [10] the target is T2, cyno CD3. Put plainly: cell binding, cyno CD3 (activated cyno PBMC); cyno CD3 (second number of the cell). As to the method: (§1) Testing for CD3 binding with activated human and cyno PBMC: To distinguish between the humanized anti-CD3 antibodies generated, binding to human CD3 was tested using activated human PBMCs (n=2). The activation of PBMCs and subsequent fluorescence-based CD3 binding assays were followed as described previously (see for example, Angew Chem Int Ed Engl, 52(46):12101-12104, 2013). […] The binding of the remaining 6 humanized antibodies to both human and cyno CD3 using activated human and cyno PBMCs, respectively, was titrated. […] The six (6) humanized anti-CD3 antibodies were obtained as follows: Fab1, Fab2 and Fab3 wildtype were generated by combination of LC ((vL1.2+CL); (SEQ.ID. NO:7)) and HC ((vH1.2+CH1); (SEQ.ID. NO:1)), ((vH1.1+CH1); (SEQ.ID. NO:2)) and ((vH1.0+CH1); (SEQ.ID. NO:3)) respectively. Fab4, Fab 5 and Fab6 wildtype were generated by combination of LC ((vL1.1+CL); (SEQ.ID. NO:8)) and HC ((vH1.2+CH1); (SEQ.ID. NO:1)), ((vH1.1+CH1); (SEQ.ID. NO:2)) and ((vH1.0+CH1); (SEQ.ID. NO:3)) respectively.
(§2) Binding of Folate-conjugated Fabs to human and cyno CD3: Binding of E. coli produced and Folate-conjugated low-affinity variants of humanized anti-CD3 Fabs was performed as described in the above Examples.

Test [11] deals with T1, human CD3. Put plainly: cell binding, human CD3 (activated human PBMC); human CD3 (first number of the cell). How it is done: as §1, §2
For test [12], the target named is T2, cyno CD3. Put plainly: cell binding, activated cyno PBMC; E. coli protein.
The target of test [13] is T1, human CD3. Kind of test: cell binding, activated human PBMC; E. coli protein.

Sequence of Folate receptor-alpha (FOLR1) (human) (P15328 25-234): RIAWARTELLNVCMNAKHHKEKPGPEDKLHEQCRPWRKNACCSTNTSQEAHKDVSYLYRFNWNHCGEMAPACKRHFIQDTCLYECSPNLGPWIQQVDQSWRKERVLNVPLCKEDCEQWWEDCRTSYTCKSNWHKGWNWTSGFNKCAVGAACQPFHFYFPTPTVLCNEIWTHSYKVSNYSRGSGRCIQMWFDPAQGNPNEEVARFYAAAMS
T1 sequence (P07766 23-207): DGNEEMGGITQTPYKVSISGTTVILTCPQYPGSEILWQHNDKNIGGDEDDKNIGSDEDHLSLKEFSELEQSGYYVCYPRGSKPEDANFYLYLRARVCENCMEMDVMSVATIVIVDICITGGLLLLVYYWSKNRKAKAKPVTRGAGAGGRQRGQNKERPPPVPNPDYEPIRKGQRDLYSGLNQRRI
T2 sequence (Q95LI5 22-198): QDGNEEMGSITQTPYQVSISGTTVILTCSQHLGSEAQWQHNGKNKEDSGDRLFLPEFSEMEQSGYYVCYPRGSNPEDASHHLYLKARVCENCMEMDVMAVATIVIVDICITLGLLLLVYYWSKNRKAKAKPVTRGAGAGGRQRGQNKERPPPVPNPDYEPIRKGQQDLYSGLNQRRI

B1: Fab1-HK129-5KPEG-Folate (Fab, V domains shown)
VH: EVQLVESGGGLVQPGGSLRLSCAASGFTFNTYAMNWVRQAPGKGLEWVARIRSKYNNYATYYADSVKDRFTISRDDSKNILYLQMNSLKTEDTAVYYCVRHGNFGNSYVSWFAYWGQGTLVTVSS
VL: QAVVTQEPSLTVSPGGTVTLTCRSSTGAVTTSNYANWVQQKPGQAPRGLIGGTNKRAPGTPARFSGSLLGGKAALTLSGAQPEDEAEYYCALWYSNLWVFGGGTKLTVLG
modifications: pAF at HK129 (Kabat) conjugated to a bifunctional linker carrying folate and a linear 5K PEG (oxime)
notes: From E. coli; also called Fab1-5KPEG-Folate
With B1, the results for the Bmax in test [1], in test [2] and in test [9] were 23400, 19900 and 134000, respectively. The Kd – broadly, a measure of binding affinity in units of concentration – in [1] is 2.34 nM; in test [2], 3.31 nM; in [9], 3.69 nM. In addition, the figures for the EC50 in [3], in test [5] and in test [7] were 2.46 nM, 5 nM and 5.27 nM, respectively. Besides, the results for the “Fold reduction in binding (vs Fab1-HK129-Folate)” value (“Fold reduction in binding” below) in test [3] and in [5] were 1.7 fold and 1.9 fold, respectively. For the same molecule, the Affinity ratio (FRα:CD3) in [4] is 26. Moreover, the FRα binding affinity in test [6] came out at 129 nM. This molecule also came in with a CD3 binding affinity in test [8] of 5 nM.

B2: Fab1-HK129-20KPEG-Folate (Fab, V domains shown)
VH: EVQLVESGGGLVQPGGSLRLSCAASGFTFNTYAMNWVRQAPGKGLEWVARIRSKYNNYATYYADSVKDRFTISRDDSKNILYLQMNSLKTEDTAVYYCVRHGNFGNSYVSWFAYWGQGTLVTVSS
VL: QAVVTQEPSLTVSPGGTVTLTCRSSTGAVTTSNYANWVQQKPGQAPRGLIGGTNKRAPGTPARFSGSLLGGKAALTLSGAQPEDEAEYYCALWYSNLWVFGGGTKLTVLG
modifications: pAF at HK129 (Kabat) conjugated to a bifunctional linker carrying folate and a linear 20K PEG (oxime)
notes: From E. coli
With B2, in [3], the midpoint of the response, the EC50, lay at 11.8 nM and the “Fold reduction in binding” value was 8.4 fold. Besides, the Affinity ratio (FRα:CD3) in [4] is 26. In addition, in test [5], the EC50 – broadly, the concentration at which the effect is half-maximal – stood at 12 nM and the “Fold reduction in binding” value was determined as 4.3 fold. Besides, the FRα binding affinity in test [6] is 310 nM. The molecule further showed a CD3 binding affinity in [8] of 12 nM.

B3: Fab8-HK129-Folate (Fab, V domains shown)
VH: EVQLVESGGGLVQPGGSLRLSCAASGFTFNTYAMNWVRQAPGKGLEWVGRIRSKYNNYATYYADSVKDRFTISRDDSKNILYLQMNSLKTEDTAVYYCVRHGNFGNSYVSWFAYWGQGTLVTVSS
VL: QAVVTQEPSLTVSPGGTVTLTCRSSTGAVTTSNYANWFQQKPGQAPRGLIGGTNKRAPGVPARFSGSLLGGKAALTLSGAQPEDEAEYYCALWYSNLWVFGGGTKLTVLG
modifications: pAF at HK129 (Kabat) conjugated to folate (oxime)
notes: also called Fab8 (E. coli, folate-conjugated)
For B3, the values for the EC50 in [10] and in test [11] were 130 nM and 78.3 nM, respectively.

B4: Fab1-HS115-Folate (Fab, V domains shown)
VH: EVQLVESGGGLVQPGGSLRLSCAASGFTFNTYAMNWVRQAPGKGLEWVARIRSKYNNYATYYADSVKDRFTISRDDSKNILYLQMNSLKTEDTAVYYCVRHGNFGNSYVSWFAYWGQGTLVTVSS
VL: QAVVTQEPSLTVSPGGTVTLTCRSSTGAVTTSNYANWVQQKPGQAPRGLIGGTNKRAPGTPARFSGSLLGGKAALTLSGAQPEDEAEYYCALWYSNLWVFGGGTKLTVLG
modifications: pAF at HS115 (Kabat) conjugated to folate (oxime)
notes: From E. coli; Fab-folate conjugate
Take B4: the EC50 was determined as 1.37 nM in test [12] and 1.41 nM in test [13].

B5: Fab1-HA114-pAF1 (Fab, V domains shown)
VH: EVQLVESGGGLVQPGGSLRLSCAASGFTFNTYAMNWVRQAPGKGLEWVARIRSKYNNYATYYADSVKDRFTISRDDSKNILYLQMNSLKTEDTAVYYCVRHGNFGNSYVSWFAYWGQGTLVTVSS
VL: QAVVTQEPSLTVSPGGTVTLTCRSSTGAVTTSNYANWVQQKPGQAPRGLIGGTNKRAPGTPARFSGSLLGGKAALTLSGAQPEDEAEYYCALWYSNLWVFGGGTKLTVLG
modifications: para-acetyl-phenylalanine (pAF) at HA114 (Kabat)
notes: From E. coli; also called Fab1 HA114pAF, unconjugated
For the molecule B5, the EC50 in [12] came out at 1.33 nM; in test [13] it was 1.35 nM.

B6: Fab7-HK129-Folate (Fab, V domains shown)
VH: EVQLVESGGGLVQPGGSLRLSCAASGFTFNTYAMNWVRQAPGKGLEWVARIRSKYNNYATYYADSVKDRFTISRDDSKNILYLQMNSLKTEDTAVYYCARHGNFGNSYVSWFAYWGQGTLVTVSS
VL: QAVVTQEPSLTVSPGGTVTLTCRSSTGAVTTSNYANWVQQKPGQAPRGLIGGTNKRAPWVPARFSGSLLGGKAALTLSGAQPEDEAEYYCALWYSNLWVFGGGTKLTVLG
modifications: pAF at HK129 (Kabat) conjugated to folate (oxime)
notes: also called Fab7 (E. coli, folate-conjugated)
On to B6, for which the EC50 in test [10] is 20.2 nM; in test [11] it was 23.4 nM.

B7: Fab1-HS115-pAF1 (Fab, V domains shown)
VH: EVQLVESGGGLVQPGGSLRLSCAASGFTFNTYAMNWVRQAPGKGLEWVARIRSKYNNYATYYADSVKDRFTISRDDSKNILYLQMNSLKTEDTAVYYCVRHGNFGNSYVSWFAYWGQGTLVTVSS
VL: QAVVTQEPSLTVSPGGTVTLTCRSSTGAVTTSNYANWVQQKPGQAPRGLIGGTNKRAPGTPARFSGSLLGGKAALTLSGAQPEDEAEYYCALWYSNLWVFGGGTKLTVLG
modifications: para-acetyl-phenylalanine (pAF) at HS115 (Kabat)
notes: From E. coli; also called Fab1 HS115pAF, unconjugated
For the molecule B7, the EC50 in test [12] worked out at 1.76 nM; in test [13] it was 1.26 nM.

B8: Fab1-HA114-Folate (Fab, V domains shown)
VH: EVQLVESGGGLVQPGGSLRLSCAASGFTFNTYAMNWVRQAPGKGLEWVARIRSKYNNYATYYADSVKDRFTISRDDSKNILYLQMNSLKTEDTAVYYCVRHGNFGNSYVSWFAYWGQGTLVTVSS
VL: QAVVTQEPSLTVSPGGTVTLTCRSSTGAVTTSNYANWVQQKPGQAPRGLIGGTNKRAPGTPARFSGSLLGGKAALTLSGAQPEDEAEYYCALWYSNLWVFGGGTKLTVLG
modifications: pAF at HA114 (Kabat) conjugated to folate (oxime)
notes: as for B4
For the molecule B8, the results for the EC50 in [12] and in [13] were 1.37 nM and 1.27 nM, respectively.

B9: Fab1-HK129-pAF (Fab, V domains shown)
VH: EVQLVESGGGLVQPGGSLRLSCAASGFTFNTYAMNWVRQAPGKGLEWVARIRSKYNNYATYYADSVKDRFTISRDDSKNILYLQMNSLKTEDTAVYYCVRHGNFGNSYVSWFAYWGQGTLVTVSS
VL: QAVVTQEPSLTVSPGGTVTLTCRSSTGAVTTSNYANWVQQKPGQAPRGLIGGTNKRAPGTPARFSGSLLGGKAALTLSGAQPEDEAEYYCALWYSNLWVFGGGTKLTVLG
modifications: para-acetyl-phenylalanine (pAF) at HK129 (Kabat)
notes: From E. coli; carries no folate and no PEG; also called Fab1-HK129-pAF1; anti-CD3 Fab1-HK129-pAF control
Turning to B9, the figures for the Bmax in test [1] and in test [2] were 32000 and 26600, respectively. Further, the equilibrium dissociation constant (Kd) in [1] is 1.59 nM; in test [2], 2.67 nM. The figures for the EC50 in test [7], in test [12] and in test [13] were 1.92 nM, 1.15 nM and 1.14 nM, respectively.

B10: Fab9-HK129-Folate (Fab, V domains shown)
VH: EVQLVESGGGLVQPGGSLRLSCAASGFTFNTYAMNWVRQAPGKGLEWVGRIRSKYNNYATYYADSVKDRFTISRDDSKNSLYLQMNSLKTEDTAVYYCVRHGNFGNSYVSWFAYWGQGTLVTVSS
VL: QAVVTQEPSLTVSPGGTVTLTCRSSTGAVTTSNYANWFQQKPGQAPRGLIGGTNKRAPGVPARFSGSLLGGKAALTLSGAQPEDEAEYYCALWYSNLWVFGGGTKLTVLG
modifications: pAF at HK129 (Kabat) conjugated to folate (oxime)
notes: also called Fab9 (E. coli, folate-conjugated)
Consider B10, for which the EC50 in test [10] is 93.1 nM; in test [11], 69.1 nM.

B11: Fab1-HK129-LL157-pAF (Fab, V domains shown)
VH: EVQLVESGGGLVQPGGSLRLSCAASGFTFNTYAMNWVRQAPGKGLEWVARIRSKYNNYATYYADSVKDRFTISRDDSKNILYLQMNSLKTEDTAVYYCVRHGNFGNSYVSWFAYWGQGTLVTVSS
VL: QAVVTQEPSLTVSPGGTVTLTCRSSTGAVTTSNYANWVQQKPGQAPRGLIGGTNKRAPGTPARFSGSLLGGKAALTLSGAQPEDEAEYYCALWYSNLWVFGGGTKLTVLG
modifications: pAF at LL157 (Kabat); pAF at HK129 (Kabat)
notes: From E. coli; double pAF variant, unconjugated; also called Fab1-HK129pAF-LL157pAF
In test [1], B11 displayed a Bmax of 27900 and a Kd of 0.604 nM. In test [2], this molecule yielded a Bmax of 23400 and a Kd of 0.955 nM.

B12: Fab10-HK129-Folate (Fab, V domains shown)
VH: EVQLVESGGGLVQPGGSLRLSCAASGFTFSTYAMNWVRQAPGKGLEWVARIRSKYNNYATYYADSVKDRFTISRDDSKNILYLQMNSLKTEDTAVYYCVRHGNFGNSYVSWFAYWGQGTLVTVSS
VL: QAVVTQEPSLTVSPGGTVTLTCRSSTGAVTTSNYANWFQQKPGQAPRGLIGGTNKRAPGVPARFSGSLLGGKAALTLSGAQPEDEAEYYCALWYSNLWVFGGGTKLTVLG
modifications: pAF at HK129 (Kabat) conjugated to folate (oxime)
notes: also called Fab10 (E. coli, folate-conjugated)
Consider B12, for which the EC50 in test [10] came to 99.5 nM; in [11] it was 83.6 nM.
